Test: yeast display, Sf9 membrane polyspecificity reagent, FACS + sequencing; frameworks hold sequencing errors
How it was run: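 In a synthetic yeast display library (Saccharomyces cerevisiae BJ5465), nanobody expression was induced with galactose for 36–48 hours. FACS gates were set low and high (top ~1%) using anti-HA fluorescence for expression and streptavidin fluorescence for binding of the Sf9 membrane reagent. Each polyreactivity label is drawn from the gate of origin.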

Sequence | polyreactivity (PSR sort gate)
QVQLVESGGGLVQAGGSLRLSCAASGYTFFFYAMGWYRQAPGKEREFVAAITWRGDSTYYADSVKGRFTISRDNAKNTVYLQMNSLKPEDTAVYYCAADPGFTWSRRMDYWGQGTQVTVSS | low polyreactivity
QVQLVESGGGLVQAGGSLRLSCAASGYTFFHNAMGWYRQAPGKERELVATISRGGGSTYYADSVKGRFTISRDNAKNTVYLQMNSLKPEDTAVYYCNKGVITYRRGYWGQGTQVTVSS | low polyreactivity
QVQLVESGGGLVQAGGSLRLSCAASGYTFFRYAMGWYRQAPGKERELVAAITGSGGRTYYADSVKGRFTISRDNAKNTVYLQMNSLKPEDTAVYYCNRYGSGHSFIYDYWGQGTQVTVSS | high polyreactivity
QVQLVESGGGLVQAGGSLRLSCAASGYTFGKYVMGWYRQAPGKERELVAAISISGSGTYYADSVKGRFTISRDNAKNTVYLQMNSLKPEDTAVYYCAARGYGFPELDYWGQGTQVTLSS | high polyreactivity
QVQLVESGGGLVQAGGSLRLSCAASGYTFGTYAMGWYRQAPGKERELVATISIGGITYYADSVKGRFTISRDNAKNTVYLQMNSLIPEDTAVYYCAKAVTDPTSRSDPTGDDYWGQGTQVTVSS | low polyreactivity
QVQLVESGGGLVQAGGSLRLSCAASGYTFGTYDMGWYRQAPGKERELVAAISIGGSTNYADSVKGRFTISRDNAKNTVYLQKNSLKPEDTAVYYCAAEVNVGTLLLSVIVEDGDYWGQGTQVTVSS | low polyreactivity
QVQLVESGGGLVQAGGSLRLSCAASGYTFGYNVMGWYRQAPGKERELVAVISSGGTTYYADSVKGRFTISRDNAKNTVYLQMNSLKPEDTAVYYCNKRSAYKFSTHYGYYYWGQGTQVNVSS | high polyreactivity
QVQLVESGGGLVQAGGSLRLSCAASGYTFGYYAMGWYRQAPGKERELVAAISLNGGSTYYADSVKGRFTISRDNAKNTVYLQMNSLKPEDSAVYYCNALYNYAEIYGRGYCGQGTQVTVSS | high polyreactivity
QVQLVESGGGLVQAGGSLRLSCAASGYTFIHNAMGWYRQAPGKERELVAAINRSGAITNYADSVKGRFTISRDNAKNTVYLQMNSLKPEDTAVYYCNADVDPLPPRYLHREVLKEYNYWGQGTQVTVSS | low polyreactivity
QVQLVESGGGLVQAGGSLRLSCAASGYTFKSYFTGWYRQAPAKERELVAAITSIGGSTYYADSVKGRFTISRDNAKNTVYFLMNSVKPEDTEVYYCAKRRRGYAFSSDYWGPGTQVTVSS | high polyreactivity
QVQLVESGGGLVQAGGSLRLSCAASGYTFKYYAMAWYRQAPGKERELVAAITRSGGGTYYADSVKGRFTISRDNAKNTVYLQMNSLKPEDTAVYYCKAVLSSHGTDAGSYSYDYWGQGTQVTVSS | high polyreactivity
QVQLVESGGGLVQAGGSLRLSCAASGYTFLDYAMAWYRQAPGKERELVAAINSGGSTYYADSVKGRFTISRDNAKNTVYLQMNSLKPEDTAVYYCAREDYVSYRLLYYLFDYWGQGTQVTVSS | low polyreactivity
QVQLVESGGGLVQAGGSLRLSCAASGYTFLRNAMGWYRQAPGKERELVAAISYSGGGTYYPDSVMGRFTISRDHAKNTVYLKMNSLKPEDTAVYYCNVAQRYYGNFFSSRYESWGQGTQVTVSS | low polyreactivity
QVQLVESGGGLVQAGGSLRLSCAASGYTFLYYAMGWYRQAPGKERELVAAISSDGTTNYADSVKGRFTISRDNAKNTVYLQMNSLKPQVTAVYYCAADVFNWGYYYWGQGTQVTVSS | low polyreactivity
QVQLVESGGGLVQAGGSLRLSCAASGYTFNDYAMGWYRQARGKERELVASISSGGSTYYADSVKGRFTISRDNAKNTVYLQMNSLKPEDTAVYYCAAEWHYIYAYDYWGQGTQVTVSS | low polyreactivity
QVQLVESGGGLVQAGGSLRLSCAASGYTFNRYAMGWYRQAPGKERELVAAISKRGGSTNYADSVKGRFTISRDNAKNTVYLQMNSLKPEDTAVYYCAKRWRSYSRGGDYWGQGTQVTVSS | high polyreactivity
QVQLVESGGGLVQAGGSLRLSCAASGYTFNYYAMGWSRQAPGKEREFVASTYADSVKGRFTISRDNAKNTVYLQMNSLKPEDTAVYYCAAEGSYPAYDYWGQGTQVTVSS | low polyreactivity
QVQLVESGGGLVQAGGSLRLSCAASGYTFNYYAMGWYRQAPGKERELVAAIRSGGSTTYADSVKGRFTISRDNAKNTVYLQMNSLKPEDTAVYYCNADAGYWYRPAYDYWGQGTQVTVSS | low polyreactivity
QVQLVESGGGLVQAGGSLRLSCAASGYTFPLYAMGWYRQAPGKERELVADINIGGASTYYADSVKGRFTISRDNAKNTFYLQMKSLKPEDTAVYYCAKEYFDGFFPTFYYDYWGQGTQVTVSS | low polyreactivity
QVQLVESGGGLVQAGGSLRLSCAASGYTFPLYAMGWYRQAPGKERELVADINIGGASTYYADSVKGRFTISRDNAKNTVYLQMNSLKPEDTAVYYCAADSRKRQGYGYWGQGTQVTVSS | low polyreactivity
QVQLVESGGGLVQAGGSLRLSCAASGYTFPRYAMGWYRQAPGKERELVAAISRRGGSTYYADSVKGRFTISRDNAKNTVYLQMNSLKPEDTAVYYCAAATRQGYYSGSTRYDYWGQGTQVTVSS | high polyreactivity
QVQLVESGGGLVQAGGSLRLSCAASGYTFPRYTMGWYRQAPGKERELVAAINWSGGSTYYADSVKGRFTISRDNAKNTVYLQMNSLKPEDTAVYYCAAPVFHLYTDRMGYWGQGTQVTVSS | high polyreactivity

Sequence | polyreactivity (PSR sort gate)
QVQLVESGGGLVQAGGSLRLSCAASGYTFPTNAMGWYRQAPGKERELVAAISIDDGITYYADSVKGRFTISRDNAKNTVYLQMNSLKPEDTAVYYCSAEVGIEYEYWGQGTQVTVSS | high polyreactivity
QVQLVESGGGLVQAGGSLRLSCAASGYTFPYYTMGWYRQAPGKERELVAAISSGGRTKYADSVKGRFTISRDNANNSVYVQMNSLKPEDTAVYYCSARSSYSFAFFWPAYNYWGQGTQVTVSS | high polyreactivity
QVQLVESGGGLVQAGGSLRLSCAASGYTFQSYAMAWYRQAPWKERELVAAIRYSGGSTYADSVKGRFTISRDNAKNTVYLQMNSLKPEDTAVYYCAARSNSLLFDYWGQGTQVTVSS | low polyreactivity
QVQLVESGGGLVQAGGSLRLSCAASGYTFRAYAMGWYRPAPGKERELVAAISRRGGSTYYADSVKGRFTISRDNAKNTVYLQMNSLKPEDTAVYYCAADFRSEHAEDYWGQGTQVTVSS | high polyreactivity
QVQLVESGGGLVQAGGSLRLSCAASGYTFRLYAMGWYRQAPVKERELVAAINTSGGRTYYADSVKGRFTISRDNAKNTVYLQMNSLKPEDTAVYYCATDWYWKRADIRPGDYWGQGTQVTVSS | low polyreactivity
QVQLVESGGGLVQAGGSLRLSCAASGYTFRNYAMGWYRQAPGKERELVAAISTRGVSTYYADSVKGRFTISRDNAKNTVYLQMNSLKPEDTADYYCAAAGGRYSRAAYDYWGQGTQVTVSS | low polyreactivity
QVQLVESGGGLVQAGGSLRLSCAASGYTFRQYAMGWYRQAPGKERELVAAIRYSGASTYYADSVKGRFTISRDNAKNTVYLQINSLKPEDTAVYYWNAALRLWGEYIYDYWGQGTQVTVSS | low polyreactivity
QVQLVESGGGLVQAGGSLRLSCAASGYTFRSNTMGWYRQAPGKERELVAAISGRGSSTYYADSVKGRFTISRDNAKNTVYLQMNSLKPEDTAVYYWNAPYNRATYNYWGQGTQVNVSS | high polyreactivity
QVQLVESGGGLVQAGGSLRLSCAASGYTFRSNTMGWYRQAPGKERELVASINQSGGRTYYADSVKGRFTISRDNAKNTVYFQMNSLKPEDTAVYYCATRGYNYYAHNYWGQGTQVTVSS | high polyreactivity
QVQLVESGGGLVQAGGSLRLSCAASGYTFRSYMGWYRQAPGKEREFVADISTSVTNTYYADSVKGRFTISRDNAKNTVYLQMNSLKPEDTAVYYCAAGVQSVYNGEPGIILEFDYWGQGTQVTVSS | low polyreactivity
QVQLVESGGGLVQAGGSLRLSCAASGYTFRTNVMGWYRQAPGKERELVATINWRGGSTYYADSVKGRFTISRDNAKNTVYLQMNSLKPEDTAVYYCAKTYRYYRTMDYWGQGTQVTVSS | low polyreactivity
QVQLVESGGGLVQAGGSLRLSCAASGYTFRWYVMGWYRPAPGKERELVAAISQSGGDTYYADSVKGRFTISRDNAKNTVYLQMNSLKPEDTAVYYCAVGRVGRFYYWGQGTQVTVSS | high polyreactivity
QVQLVESGGGLVQAGGSLRLSCAASGYTFRYNALGWYRQAPGKERELVAAISYSRGSTYYADSVKGRFTISRDYAKYTVYLLMNSLKPEDTAVYYCAAQYLFSGHDYWGQGTQVTVSS | low polyreactivity
QVQLVESGGGLVQAGGSLRLSCAASGYTFRYNTMGWYRQAPGKERELVADISSGVGNTYYADSVKGRFTISRDNAKNTVYLQMNSLKPEDTAVYYCNADYKSSYYWYLWYNYWGHGTQVTVSS | low polyreactivity
QVQLVESGGGLVQAGGSLRLSCAASGYTFRYYAMGSYRQAPGKERELVAAITWSGGSTYYADSVKGRFTISRDNAKNTVYLQMNSLKPEDTAVYFCATDSARVGNFPYPQFDYWGQGTQVTVSS | low polyreactivity
QVQLVESGGGLVQAGGSLRLSCAASGYTFRYYAMGWYRQAPGKERELVAAINWSGGSTYYADSVKGRFTISRDNAKNTVYLQNNSLKPEDTAVYYCAADPDGDLDIDYDYWGLGTQVTVSS | low polyreactivity
QVQLVESGGGLVQAGGSLRLSCAASGYTFRYYAMGWYRQAPGKERELVAVISSGGSTKYADSVKGRFTISRDNAKNTVYLQMNSLKPEDTAVYYCAARYRSLYNYWGQGTQVTVSS | high polyreactivity
QVQLVESGGGLVQAGGSLRLSCAASGYTFSAYAMGCYRQAPGKERELVASITRRRTNYAESVKGRFTISRDNAKNTVYLQMNSLKPEDTAVYYCAATNYVRQYATYDYWGQGTQVTVSS | high polyreactivity
QVQLVESGGGLVQAGGSLRLSCAASGYTFSFYAMGWYRQAPGKERELVATISWRGGSTYYADSVKGRFTISRDNAKNTVYLQMNSLKPEDTAVYYCNIVDKTGSKMDYWGQGTQVTVSS | high polyreactivity
QVQLVESGGGLVQAGGSLRLSCAASGYTFSRYAMGWYRQAPGKERELVAAISSRGGSTYYADSVKGRFTISRDNAKNTVYLQMNSLKPADTAVYYCAADYGVGYGIVGSYYWGQGTQVTVSS | high polyreactivity
QVQLVESGGGLVQAGGSLRLSCAASGYTFSSNVMGWYRQAPGKERELVAAISANGARTYYADSVKGRFTISRDNAKNTVYLQMNSLKPEDTAVYYCAADYRWAGRYYYWGQGTQVTVSS | high polyreactivity

From the nanobody polyreactivity screen of Harvey et al. (2022)
